Experimental data from patent publication US20230086210A1.

Columns and labels:
[1] = molecular target: human 4-1BB on Jurkat-hu4-1BB-NFκB-luc2 reporter cells (human) (UniProt Q07011); assay: cell-based or functional assay; set-up: unit not given beside the values
[2] = molecular target: human PD-L1 on MKN45-huPD-L1 cells (human) (UniProt Q9NZQ7); assay: flow cytometry on MKN45-huPD-L1 cells, area under the binding curve; set-up: unit not given beside the values
Sequence of human PD-L1 on MKN45-huPD-L1 cells (human) (Q9NZQ7 19-290 limits assumed): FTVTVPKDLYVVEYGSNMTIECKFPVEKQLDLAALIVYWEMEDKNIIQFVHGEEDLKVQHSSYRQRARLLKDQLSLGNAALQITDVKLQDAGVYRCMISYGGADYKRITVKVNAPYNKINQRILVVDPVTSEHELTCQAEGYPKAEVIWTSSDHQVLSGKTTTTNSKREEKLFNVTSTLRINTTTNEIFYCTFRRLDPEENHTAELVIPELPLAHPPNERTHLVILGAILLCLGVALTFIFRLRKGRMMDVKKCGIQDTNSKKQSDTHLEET

Sequence of human 4-1BB on Jurkat-hu4-1BB-NFκB-luc2 reporter cells (human) (Q07011 24-255): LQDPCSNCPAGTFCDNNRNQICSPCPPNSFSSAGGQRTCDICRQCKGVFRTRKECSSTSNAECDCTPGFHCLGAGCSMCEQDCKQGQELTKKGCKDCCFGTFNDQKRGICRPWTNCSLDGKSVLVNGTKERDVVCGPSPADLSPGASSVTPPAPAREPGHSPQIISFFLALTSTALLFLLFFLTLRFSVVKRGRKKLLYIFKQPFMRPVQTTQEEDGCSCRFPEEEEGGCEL

- AUC of NFκB-activation-induced Luciferase activity curve [1]: 112
- AUC [2]: 248
Substance: DP47 huIgG1 P329G LALA (antibody)
